Results published in publication doi:10.1101/543413.

Experiments:
Assay in all cases: MST
[1] = biological target: R663H human β-cardiac 25-hep HMM (UniProt P12883)
[2] = biological target: R663H human β-cardiac sS1 (human) (UniProt P12883)
[3] = biological target: WT human β-cardiac sS1 (short S1) (human) (UniProt P12883)

Row | Substance | Kd [1] | Kd [2] | Kd [3]
1 | C0-C7 fragment of myosin binding protein-C (MyBP-C) (domain or fragment) | 900 nM | – | –
2 | proximal S2 of human β-cardiac myosin (from UniProt P12883 1-1935) (domain or fragment) | – | 50 µM | 67 µM
